Consider 3 molecules from patent US20250297004A1, “NECTIN-4 BINDING AGENTS” (INNATE PHARMA, priority 2022, published 2025).

In test [1] the target is T1, human Nectin-4 Mutant 9 (human, UniProt Q96NY8 32-510).
T1 construct: Expressed on transfected HEK293T cells; also called L150S/S152A/Q234R/I236S
T1 chain: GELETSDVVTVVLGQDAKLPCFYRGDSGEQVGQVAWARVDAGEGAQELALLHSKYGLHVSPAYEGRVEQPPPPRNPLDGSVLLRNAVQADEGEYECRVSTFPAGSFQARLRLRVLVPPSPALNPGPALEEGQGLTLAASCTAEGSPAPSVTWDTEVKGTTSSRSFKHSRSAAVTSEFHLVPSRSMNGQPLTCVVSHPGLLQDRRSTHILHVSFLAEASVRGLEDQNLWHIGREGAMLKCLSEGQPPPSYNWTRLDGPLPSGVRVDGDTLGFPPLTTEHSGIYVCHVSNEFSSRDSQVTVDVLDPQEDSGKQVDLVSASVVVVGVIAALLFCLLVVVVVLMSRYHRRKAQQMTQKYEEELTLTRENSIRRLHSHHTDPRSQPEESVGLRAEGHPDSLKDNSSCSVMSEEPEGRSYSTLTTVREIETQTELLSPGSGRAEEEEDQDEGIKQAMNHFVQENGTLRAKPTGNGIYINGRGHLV
Nature of the test: binding to HEK293T cells expressing Nectin-4 mutant.

Test [2] has as its target T2, human Nectin-4 Mutant 3 (human, UniProt Q96NY8 32-510).
T2 construct: Expressed on transfected HEK293T cells; also called A76S/Q77R/E78A/S91N
T2 chain: T1 chain with A45S, Q46R, E47A, S60N, S119L, A121S, R203Q, S205I
The test is described as above.

For test [3], the target named is T3, human Nectin-4 Mutant 2 (V90S/P92A/A93S/E95A/G96D) (Homo sapiens, UniProt Q96NY8, A93S/E95A/G96D/P92A/V90S).
T3 construct: expressed in transfected cells; host or cells: HEK293T
T3 sequence (Q96NY8 32-510 V90S/P92A/A93S/E95A/G96D): T1 chain with V59S, P61A, A62S, E64A, G65D, S119L, A121S, R203Q, S205I
Nature of the test: Epitope mapping using Nectin-4 point mutants. Type of test: binding. The source says:
(§1) Combined with the published structures of the Nectin-4 domains, Nectin-4 mutations at surface exposed amino acids residues were designed. Nectin-4 domain structure was modelled based on Protein Data Bank reference: 4FRW (domains V et C1). Human Nectin-4 used was NCBI Reference Sequence: NP_112178.2, mouse Nectin-4 used was NCBI Reference Sequence: AAL79833.1, cynomolgus Nectin-4 used was NCBI Reference Sequence: XP_005541277.1, rat Nectin-4 used was NCBI Reference Sequence: NP_001102546.1. The cells expressing the Nectin-4 mutants are then be used for testing anti-Nectin-4 antibodies for loss of binding to different Nectin-4 mutants to identify antibodies that bind to the same site on Nectin-4. […] FIGS. 8A and 8B show different view of a molecular model of the human Nectin-4 protein, indicating the position of substituted residues in mutants 1, 2, 3, 4, 5, 6, 7, 8 and 9.
(§2) Nectin-4 mutants were generated by PCR. The sequences amplified were run on agarose gel and purified using the Macherey Nagel PCR Clean-Up Gel Extraction kit. The purified PCR products generated for each mutant were then ligated into an expression vector, with the ClonTech InFusion system. The vectors containing the mutated sequences were prepared as Miniprep and sequenced. After sequencing, the vectors containing the mutated sequences were prepared as Midiprep using the Promega PureYield™ Plasmid Midiprep System. HEK293T cells were grown in DMEM medium (Invitrogen), transfected with vectors using Invitrogen's Lipofectamine 2000 and incubated at 37° C. in a CO2 incubator for 48 hours prior to testing for transgene expression. The targeted amino acid mutations are shown in Table 13 below, listing the residue present in wild-type Nectin-4/position of residue/residue present in mutant Nectin-4, with position reference being to the Nectin-4 protein with leader peptide shown in SEQ ID NO: 1.
(§3) (+) means that antibodies-Nectin-4 association occurs.

The target in test [4] is T4, human Nectin-4 Mutant 7 (S195A/K197T/S199A) (Homo sapiens, UniProt Q96NY8, K197T/S195A/S199A).
T4 construct: expressed in transfected cells; host or cells: HEK293T
T4 sequence (Q96NY8 32-510 S195A/K197T/S199A): T1 chain with S119L, A121S, S164A, K166T, S168A, R203Q, S205I
Nature of the test: Epitope mapping using Nectin-4 point mutants. The format is binding.
Source text: as §1, §2, §3

Numbering of substitutions follows the chain as printed.

B1: chimeric parental 5E7 antibody (antibody, V domains shown)
VH: QVQLQQPGAELVKPGASVKLSCKASGYIFTSYWMHWVKQRPGQGLEWIGEIDPSDSYTNYNQKFKGKATLTLDKSSSTTYMQLSSLTSEDSAVYYCVRGYGNYGDYWGQGTTLTVSS
VL: DVVMTQAAFSNPVTLGTSASISCRSSKSLLHSNGITYLYWYLQKPGQSPQLLIYQMSNLASGVPDRFSSSGSGTDFTLRISRVEAEDVGVYYCAQNLELPWTFGGGTKLEIKR
notes: Chimeric antibody, murine variable domains with human constant regions; also called ch5E7; CHG1-M-1N4-5E7
As for B1, the binding result in test [1] and in test [2] was “binds” in each case.

B2: N41 (antibody, V domains shown)
VH: QVQLKQSGPGLVQPSQSLSITCTVSGFSLTNYGVHWVRQSPGKGLEWLGVIWSGGSTDYNAAFISRLSISKDTSKSQVFFKMNSLQADDTAIYYCARELIHAMDNWGQGTSVTVSS
VL: DIQMTQSPASLSVSVGETVTITCRASENIYSNLAWYQQKQGNSPQLLVFAATNLADGVPSRFSGSGSGTQYSLKINSLQSEDFGTYYCQHFWGTPTFGGGTKLEIK
For the molecule B2, the binding result in test [1] and in test [2] was “binds” each time. In test [3], the “association with Mutant 2” value was “+”. Further, the “association with Mutant 7” value in test [4] is given as “+”.

B3: 5E7 (antibody, V domains shown)
VH: QVQLQQPGAELVKPGASVKLSCKASGYIFTSYWMHWVKQRPGQGLEWIGEIDPSDSYTNYNQKFKGKATLTLDKSSSTTYMQLSSLTSEDSAVYYCVRGYGNYGDYWGQGTTLTVSSASTKGP
VL: DVVMTQAAFSNPVTLGTSASISCRSSKSLLHSNGITYLYWYLQKPGQSPQLLIYQMSNLASGVPDRFSSSGSGTDFTLRISRVEAEDVGVYYCAQNLELPWTFGGGTKLEIKRTVAAP
In the case of B3, the “association with Mutant 2” value in test [3] is on record as “+”. In addition, the “association with Mutant 7” value in test [4] was “−”.
